The RNAGym collection of RNA variant scans (doi:10.1073/pnas.2313332121)
Fewer inactive variants are shown than the library holds.

B1: TPR 5TU (parent)
chain: GGAUCUUCUCGAUCUAACAAAAAAGACAAAUCUGCCACAAAGCUUGAGAGCAUCUUCGGAUGCAGAGGCGGCAGCCUUCGGUGGCGCGAUAGCGCCAACGUUCUCAACUAUGACACGCAAAACGCGUGCUCCGUUGAAUGGAGUUUAUCAUG

Variants of: B1
Experiment: polymerase ribozyme fitness, log enrichment relative to wild type (log ratio); higher = more active; in vitro selection for triplet polymerase activity
In short: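 Mutant libraries were PCR-built and transcribed for each subunit of a heterodimeric triplet polymerase ribozyme and selected for one round in triplicate at −7 °C, frozen, before gel excision of extended constructs and streptavidin-bead capture. Input and output libraries were Illumina-sequenced, keeping genotypes with ≥10 input reads and ≥1 read per output. Fitness is a logarithmic ratio of genotype to wild-type enrichment, in base 2, using inverse-variance-weighted replicate averages.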
In the case of A22G G65A A97U, the “polymerase ribozyme fitness (log ratio)” value is reported as -2.68.
For A22U C43U A47C A91C C108U A115U A121C, the “polymerase ribozyme fitness (log ratio)” value was no more than -4.2.
For A21U C36A G50U U55A C57G G62A G68U C85G C103A G128A, the “polymerase ribozyme fitness (log ratio)” value was no more than -4.2.
With A21G C132G the “polymerase ribozyme fitness (log ratio)” value was -3.9.
In the case of A23C A60G C96A C118U, the “polymerase ribozyme fitness (log ratio)” value is reported as no more than -4.2.
For A21C U56G C85A C87U G92A, the “polymerase ribozyme fitness (log ratio)” value was -3.51.
For A22U A52G C75U G83U U134C A142C, the “polymerase ribozyme fitness (log ratio)” value was -3.51.
With A21G C38U A47C U90A C96A A137U the “polymerase ribozyme fitness (log ratio)” value was no more than -4.2.
With A21C G50C G74A C87G U109G the “polymerase ribozyme fitness (log ratio)” value was no more than -4.2.
In the case of A22U A41C G70C U82G, the “polymerase ribozyme fitness (log ratio)” value is reported as no more than -4.2.
For A21U U55A, the “polymerase ribozyme fitness (log ratio)” value was -0.879.
With A22U G50C the “polymerase ribozyme fitness (log ratio)” value was -2.99.
For A22U G50U, the “polymerase ribozyme fitness (log ratio)” value was 1.37.
With A22U G86A G92U the “polymerase ribozyme fitness (log ratio)” value was -1.74.
In the case of A21G G46C U82G G88U C95G A98C, the “polymerase ribozyme fitness (log ratio)” value is reported as no more than -4.2.
With A21G A23G G128C the “polymerase ribozyme fitness (log ratio)” value was no more than -4.2.
With A21C U56A C93A A121C U146G C149U the “polymerase ribozyme fitness (log ratio)” value was -2.29.
For A22G C54U, the “polymerase ribozyme fitness (log ratio)” value was 0.651.
For A23C A60U G84U C105A, the “polymerase ribozyme fitness (log ratio)” value was no more than -4.2.
In the case of A21U A24U A52G G71U U90C C123U G126U U144A A147C U151A, the “polymerase ribozyme fitness (log ratio)” value is reported as no more than -4.2.
With A21U A142U the “polymerase ribozyme fitness (log ratio)” value was -0.552.
With A22U G46U C69A C93A C131A U148A the “polymerase ribozyme fitness (log ratio)” value was no more than -4.2.
With A22C G92C U109C U148A the “polymerase ribozyme fitness (log ratio)” value was -4.16.
In the case of A22C C35G U44A A60G C76A C95U G128A A150C U151G, the “polymerase ribozyme fitness (log ratio)” value is reported as no more than -4.2.
With A22G U31C G94C the “polymerase ribozyme fitness (log ratio)” value was 0.086.
In the case of A22U C54A A91G, the “polymerase ribozyme fitness (log ratio)” value is reported as -3.53.
With A22U A26U the “polymerase ribozyme fitness (log ratio)” value was -2.88.
For A21U U31A C85A, the “polymerase ribozyme fitness (log ratio)” value was -0.251.
In the case of A22G U144C, the “polymerase ribozyme fitness (log ratio)” value is reported as 0.51.
In the case of A22C G48U A60G, the “polymerase ribozyme fitness (log ratio)” value is reported as 0.164.
In the case of A22C C32G C43G G92A C114U C118G U139A, the “polymerase ribozyme fitness (log ratio)” value is reported as no more than -4.2.
With A22U A52U U78A C85U U127A A137C the “polymerase ribozyme fitness (log ratio)” value was no more than -4.2.
In the case of A21G C93A C103U, the “polymerase ribozyme fitness (log ratio)” value is reported as -1.75.
In the case of A21U C75A A122U, the “polymerase ribozyme fitness (log ratio)” value is reported as -3.97.
With A21G the “polymerase ribozyme fitness (log ratio)” value was 0.531.
With A21U the “polymerase ribozyme fitness (log ratio)” value was 0.554.
For A22U G58C C87U U135C, the “polymerase ribozyme fitness (log ratio)” value was -2.68.
For A22C C27G C99U A106U G140U A147G, the “polymerase ribozyme fitness (log ratio)” value was no more than -4.2.
With A21U A39U C43G G50C G92A G141U the “polymerase ribozyme fitness (log ratio)” value was no more than -4.2.
For A22C A40U C54U G94A, the “polymerase ribozyme fitness (log ratio)” value was -0.982.
In the case of A22G C35U C93G A142C A150G, the “polymerase ribozyme fitness (log ratio)” value is reported as no more than -4.2.
In the case of A23C C27U A29G C87U A110G, the “polymerase ribozyme fitness (log ratio)” value is reported as no more than -4.2.
For A21U G84A A89G, the “polymerase ribozyme fitness (log ratio)” value was -1.44.
In the case of A22U G83C G84A U101A C123A, the “polymerase ribozyme fitness (log ratio)” value is reported as -4.08.
In the case of A21U G84A G141A, the “polymerase ribozyme fitness (log ratio)” value is reported as 0.99.
For A21U A23U A29C C35G G48A, the “polymerase ribozyme fitness (log ratio)” value was no more than -4.2.
In the case of A21U A23G A26G G84U G86U G136U U148G, the “polymerase ribozyme fitness (log ratio)” value is reported as no more than -4.2.
With A21U A64C U145G the “polymerase ribozyme fitness (log ratio)” value was no more than -4.2.
With A22C C125U the “polymerase ribozyme fitness (log ratio)” value was -0.469.
With A22G G92A C108G the “polymerase ribozyme fitness (log ratio)” value was no more than -4.2.
With A22U C63U the “polymerase ribozyme fitness (log ratio)” value was 0.542.
For A22G C32U A120G C125U, the “polymerase ribozyme fitness (log ratio)” value was -3.24.
In the case of A22U G84U, the “polymerase ribozyme fitness (log ratio)” value is reported as -1.67.
For A21G G83C U90C U146A A150C, the “polymerase ribozyme fitness (log ratio)” value was no more than -4.2.
For A22C A24U G50C G58A C93U G94U, the “polymerase ribozyme fitness (log ratio)” value was no more than -4.2.
With A22G U53C U82G A98U the “polymerase ribozyme fitness (log ratio)” value was 0.397.
In the case of A21C C32G C43U C57A G71U C85A G88C A91C A147U, the “polymerase ribozyme fitness (log ratio)” value is reported as no more than -4.2.
For A22C C85A A137G, the “polymerase ribozyme fitness (log ratio)” value was -2.49.
For A21C C72G A73U C93U C99G G126U, the “polymerase ribozyme fitness (log ratio)” value was no more than -4.2.
For A23C C43U A47C C57G C87A A121G G143C U144G, the “polymerase ribozyme fitness (log ratio)” value was no more than -4.2.
In the case of A22C G42C C69G A91U, the “polymerase ribozyme fitness (log ratio)” value is reported as no more than -4.2.
For A22G A23U U53G C57A G84U C114U C129U, the “polymerase ribozyme fitness (log ratio)” value was no more than -4.2.
With A22U A39C U61A C72U C85G G141A the “polymerase ribozyme fitness (log ratio)” value was no more than -4.2.
In the case of A21U A49G A98G, the “polymerase ribozyme fitness (log ratio)” value is reported as -0.555.
For A21U A41G, the “polymerase ribozyme fitness (log ratio)” value was 1.06.
With A21C U61G C85U the “polymerase ribozyme fitness (log ratio)” value was 0.133.
For A21U G50C C54U C63U G94A, the “polymerase ribozyme fitness (log ratio)” value was -0.0103.
With A21U A23U A24C C54U G81A C85U the “polymerase ribozyme fitness (log ratio)” value was no more than -4.2.
With A22U C99G C116U the “polymerase ribozyme fitness (log ratio)” value was -0.689.
For A21U A29C C95A U101G G126C U135G G143U, the “polymerase ribozyme fitness (log ratio)” value was no more than -4.2.
With A21U A29C G92A C99U G117U U130G the “polymerase ribozyme fitness (log ratio)” value was -3.76.
For A22U C35U U55A G59A G65A C85U C105A, the “polymerase ribozyme fitness (log ratio)” value was no more than -4.2.
With A21G C54A G83U C87A C96U A122C the “polymerase ribozyme fitness (log ratio)” value was no more than -4.2.
In the case of A21C U56A, the “polymerase ribozyme fitness (log ratio)” value is reported as -0.39.
For A22U A89U, the “polymerase ribozyme fitness (log ratio)” value was 0.229.
In the case of A22C C57A C118U, the “polymerase ribozyme fitness (log ratio)” value is reported as -1.03.
For A21G A26C A66U C87G A115C U134C U146A, the “polymerase ribozyme fitness (log ratio)” value was no more than -4.2.
In the case of A22U C36G C105G, the “polymerase ribozyme fitness (log ratio)” value is reported as no more than -4.2.
For A21G G42A G50C C93G G136U, the “polymerase ribozyme fitness (log ratio)” value was no more than -4.2.
For A21U A47C A52C A60G C85G C87A A121C, the “polymerase ribozyme fitness (log ratio)” value was no more than -4.2.
In the case of A22U C125U, the “polymerase ribozyme fitness (log ratio)” value is reported as -0.442.
In the case of A22U U55A G94A A98U U135A, the “polymerase ribozyme fitness (log ratio)” value is reported as -2.29.
With A21U C27G C93U A138C A147C the “polymerase ribozyme fitness (log ratio)” value was no more than -4.2.
